The values below come from paper PMC8968458.

The target of this assay is NF-κB protein p65 (endogenous) (human (endogenous in PC-3)), Q04206. Description: immuno-depletion. As to conditions: remark: other sources report otherwise.
Chain of NF-κB protein p65 (endogenous) (human (endogenous in PC-3)), Q04206 (Q04206 whole entry): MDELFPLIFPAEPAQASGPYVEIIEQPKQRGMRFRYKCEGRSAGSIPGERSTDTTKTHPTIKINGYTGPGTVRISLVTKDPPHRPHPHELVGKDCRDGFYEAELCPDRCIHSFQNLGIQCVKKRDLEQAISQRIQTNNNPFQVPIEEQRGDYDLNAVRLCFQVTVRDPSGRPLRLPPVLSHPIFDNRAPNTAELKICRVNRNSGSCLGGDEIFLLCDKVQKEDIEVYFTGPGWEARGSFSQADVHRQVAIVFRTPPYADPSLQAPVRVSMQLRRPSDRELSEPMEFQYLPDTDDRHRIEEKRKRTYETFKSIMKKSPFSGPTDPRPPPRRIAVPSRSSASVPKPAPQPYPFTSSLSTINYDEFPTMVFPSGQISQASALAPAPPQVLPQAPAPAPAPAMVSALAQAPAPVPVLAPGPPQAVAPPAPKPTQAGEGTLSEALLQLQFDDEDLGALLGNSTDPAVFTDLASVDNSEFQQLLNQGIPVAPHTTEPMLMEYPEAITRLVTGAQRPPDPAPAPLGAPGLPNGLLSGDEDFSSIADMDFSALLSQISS

B1: IκBα (endogenous), P25963 1-317 (natural protein)
chain: MFQAAERPQEWAMEGPRDGLKKERLLDDRHDSGLDSMKDEEYEQMVKELQEIRLEPQEVPRGSEPWKQQLTEDGDSFLHLAIIHEEKALTMEVIRQVKGDLAFLNFQNNLQQTPLHLAVITNQPEIAEALLGAGCDPELRDFRGNTPLHLACEQGCLASVGVLTQSCTTPHLHSILKATNYNGHTCLHLASIHGYLGIVELLVSLGADVNAQEPCNGRTALHLAVDLQNPDLVSLLLKCGADVNRVTYQGYSPYQLTWGRPSTRIQQQLGQLTLENLQMLPESEDEESYDTESEFTEFTEDELPYDDCVFGGQRLTL
The molecule B1 yielded a percent of IκBα bound to p65 of 63%.
